According to a protein production outcome set (Wang et al. 2014):

Experiment: label from the status in PepcDB records
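Note: failed if final PepcDB status was selected cloned or expressed and not failed if soluble or beyond.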

Row | Sequence | protein production
1 | MRQPPILSEALRLFFPLAALHGAVWPFLWIVIGGYALPFANAVPPSQWHAHEMIFGTYGMALAGFLGSAVPEWTDTKAAAGRTLLCLAGLWLPGRLIGFVGADTWSLLAGFFDLAFLLALSVLIGKAMLVRRTTKHLAFLVWLILFAAAETGVRYAWWMGDLEFAVRCLEAALCIFIVLFSLSAARINVVVINLALDPSGETTPYRPHPGRQHMAGAMVTLYMAAKLLFPESDVCAWLALAAGAAFFDRLAEWFIGRAVFRTEVLLLALGNAFAGAGFLALGATRLGFSVTSAAGLHLLSVGALGCAIMAVFIIAGLRHTGRDLKHLPWQAHAAAALMVMAGLTRILPEFDVAAVLSPYHHGLSAILWAASFGIWLQGFLPFMRAPGTDEAGACG | failed
2 | MSESTYPSVKDLTLEEKASLTSGGDSWHLQGVESKGIPGYMITDGPHGLRKSLASSTGETDLNNSVPATCFPPAAGLSSSWNPELIHKVGEAMAEECIQEKVAVILGPGVNIKRNPLGGRCFEYWSEDPYLAGHEAVGIVAGVQSKGVGTSLKHFAANNQETDRLRVDARISQRALREIYLPAFEHIVKTAQPWTIMCSYNRINGVHSAQNHWLLTDVLRDEWGFEGIVMSDWGADHDRVASLNAGLNLEMPPSYTDDQIVYAARDGRIAPAQLDRMAQGMIDLINKACAAMSIDGYRFDVDAHDEVAHQAAIESIVLLKNDDAILPLNADPAAARKIAVIGEFARTPRYQGGGSSHITPTKMTSFLDTLAERGIKADFAPGFTLDLEPADPALESEAVETAKNADVVLMFLGLPEAAESEGFDRDTLDMPAKQIALLEQVAAANQNVVVVLSNGSVVSVAPWAKNAKGILESWLLGQSGGPALADVIFGQVSPSGKLAQSIPLDINDDPSMLNWPGEEGHVDYGEGVFVGYRYYDTYGKSVDYPFGYGLSYATFEIADVAAAKTGANTATVTATVTATVTNTSDVDAAETVQVYVAPGKADVARPKHELKGFTKVFLKAGESKSVTIDLDERAFAYWSEKYNDWHVESGEYAIEVGVSSRDIADTVVVTLEGDGKSQPLTEWSTYGEWEADPFGAKIVAAVAAAGEAGELTKLPDNAMMRIFLNSMPINSLSTLLGEGGKKIAKFMVDEYAKLAK | failed
3 | MSIRLAQVTDIPVLKELLNQIFQVHQTVRPDLFKNTDKGSKYSETELKELLQDESKPIFVYTDGKNRVLGHLFLVIKETKGSSVSKPLKTLFIDDLCVSKEARGQKIGQELFEFALKYAKKLGCYDLTLNVWNDNKGALAFYERQGLKARETKMEKILLEHHHHHH | not failed
4 | MAIIPGVEQKPMSSNLESRIDQGTGREPADMVLKGGRFFDLVTGELVASDIAICGDTVVGTCGDYKGRHEIDISGKIVVPGFIDTHLHIESSLVTPHEFDRCVLPYGVTTAICDPHEIANVLGAEGLQFFLDSAMETIMDIRVQLSSCVPATHLETSGADLPIEKLLPFRNHPKVIGLAEFMNFPGVIHKDPVCMAKLEAFQGQHIDGHAPLLSGAALNGYLAAGIRTEHECTSAAEALEKIRKGMHILVREGSVSKDLHALMPIITERLSPYLALCTDDRNPLDIAEQGHLDYMIRTAIASGVEPLAIYRAASISAAKAFGLRDRGLVAPGWRADLVVIDTLQNCKASMVLSGGRLVDDALFATRKPVAPVGLDSVKARPVLASHFGVPVTEGETPVMGVLPGKIITEHRRYKLPTDGNQTTVDLENDIIKVAVIERHGKNGNHANGFVQGFGLKKGAIASTVGHDSHNICVVGVSEDDMALAANRLGDIKGGFVVVEDGRVTGEIALPVAGLMSLEPYETVRDTLHTLRKAAYALGTTLEEPFLQVAFLPLPVIPHLKISDMGMVDVDRFALI | failed
5 | MLREAEVVVLGAGVAGLTLARLLWERGRKVLVVAEALGEASRPPVALVNPLRGRRFTLAEEGERALAAALAFYGRFVPLHLGVFRPVPEEDRPKVAGRLSRLKHRWEKEGVLLEEAFWLEPRPLLARLAEGLPLLRGRVLAWEPPWLVLEGGGRVRGEVLVYAGGGRGAHLLGLEGRHVPGLVLTLLDYFPRAVSYRVYLAGAALGGSYLPGEEGYRLPPPTEGEVEWLLQGAEALVGYRPRVASLWRGVRFRLSSFLFPVEGGFALTGFGSTGFLYAPLLAERLAERLLEHHHHHH | failed
6 | MFVTLQTVQESEKEILRNLYALYLHDLSTFTSNITIGANGFFEYEDLHMFWVNDGITPYFIKSDNEIVGFLLLLERPFLKKENDFGINDIFILNQYKGKGIGKQVIESLLKEKRGQYFVIELVKNVPAVSFWKKVYRELNIEFDEKIQLIDDEECLVQTFEI | failed
